Biological target: the molecule itself
Test: self-assembly into 2D arrays, negative-stain EM and AFM
Experimental: Samples were applied to glow-discharged EM grids and stained with either uranyl acetate (UA), uranyl formate (UF) or NanoW™ (Nanoprobes, Inc, Yaphank, N.Y., USA) for screening or analysis. Data was collected using a Tecnai T12 equipped with a Gatan Orius CCD. CTF estimation was performed using GCTF (10), and all other image processing steps were completed via Relion™ 2.1 (11). For the analysis in FIG. 2G, 421 2D array segments were picked manually from 42 micrographs, and the resulting 2D class average used as a template for Relion™ autopicking, which yielded 5,823 2D array segments. After subsequent 2D classification and alignment, the dominant 2D class consisted of 1,893 array segments (each approximately 20 nm diameter).

B1: 2D-HP (designed binder)
chain: MGSRTMYIRALEQSLREQEELAKRLKELLRELERLQREGSSDRDVKVLLWEIEALVEEIEKLARLQKELVEKLKRQGSGNMYIRALEQSLREQEELAKRLKELLRELERLQREGSSDRDVKVLLWEIEALVEEIEKLARLQKELVEKLKRQD
notes: Expressed from pET28b(+) between NdeI and XhoI; also called design 2D-HP; designed 2D assembly 2D-HP
  binding result: binds
